T1: Rhesus-ICAM1 (rhesus, UniProt Q5NKV6 28-480, limits assumed)
T1 sequence (looked up): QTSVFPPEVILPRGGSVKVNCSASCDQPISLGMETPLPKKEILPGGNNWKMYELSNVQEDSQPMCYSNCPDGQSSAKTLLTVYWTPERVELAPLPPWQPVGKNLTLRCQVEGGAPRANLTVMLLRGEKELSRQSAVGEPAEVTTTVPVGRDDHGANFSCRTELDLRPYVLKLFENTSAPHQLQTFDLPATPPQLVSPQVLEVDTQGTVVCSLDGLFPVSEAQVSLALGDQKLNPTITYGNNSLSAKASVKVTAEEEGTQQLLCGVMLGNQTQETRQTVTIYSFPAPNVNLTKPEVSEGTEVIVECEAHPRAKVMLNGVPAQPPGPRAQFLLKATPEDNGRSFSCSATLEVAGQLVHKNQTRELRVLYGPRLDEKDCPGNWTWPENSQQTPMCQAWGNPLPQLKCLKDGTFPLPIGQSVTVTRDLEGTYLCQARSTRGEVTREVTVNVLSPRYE


Assays:
[1] = molecular target: T2, cynomolgus CD38 ECD (cynomolgus, UniProt Q5VAN0 44-301, biotinylated on the AviTag during preparation); assay: SPR (Biacore 8K), antibody captured, antigen injected;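 note: antibodies held on a CM5 chip by anti-human IgG Fc, antigen in 3-fold dilution series, 1 min association, 10 min dissociation at 25 °C, 1:1 Langmuir kinetic fit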
T2 construct: also called Cyno-CD38; Avi-Cyno CD38 ECD
Procedure: (§1) The binding kinetics of the anti-CD38 and anti-ICAM1 antibodies were evaluated on a Biacore 8K instrument (GE Healthcare). Biacore Series S CM5 sensor chips were immobilized with monoclonal mouse anti-human IgG (Fc) antibody (human antibody capture kit from GE Healthcare). Antibodies were captured on each flow cell. Serial 3-fold dilutions of each antigen were injected at a flow rate of 30 μl/min. Each sample was analyzed with 1 min association and 10 min dissociation at room temperature (25° C.). After each injection, the chip was regenerated using 3M MgCl₂. A 1:1 Langmuir model of simultaneous fitting of kₒₙ and koff was used for kinetics analysis.

[2] = molecular target: recombinant human CD38 (human, UniProt P28907 43-300, limits assumed); assay: as above
Procedure: as §1

[3] = molecular target: T3, recombinant human ICAM1 (human, UniProt P05362 28-480, limits assumed); assay: ELISA: plate coated with 1 ug/ml recombinant human ICAM1 ECD, serially diluted antibody, OD450
Procedure: (§2) The plate was coated overnight at 4° C. with 1 μg/ml recombinant CD38 or ICAM1. After washing 3 times, the plate was blocked with 300 μl 1% BSA in PBST at 37° C. for 1 hour. Serially diluted antibodies were added and incubated at 37° C. for 1 hour. The plate was then washed 4 times with PBST and incubated with 1:5000 diluted 2nd antibody (Sigma, Cat #A0293) at 37° C. for 1 hour.

[4] = molecular target: T4, ICAM1 on the surface of DU145 cells (human, UniProt P05362 28-532); assay: flow cytometry, DU145 cells;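 note: purified antibodies in dilution series bound to cells for 1 h at 4 °C, detected with a fluorescent secondary antibody (1 h, 4 °C, dark), read by flow cytometry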
T4 construct: whole, on cells
Procedure: Harvested cells were centrifuged at 2000 rpm for 5 min and resuspended with 10-15 ml ice-cold culture medium. Cells were counted and then 3×10⁶ cells were resuspended per mL of blocking buffer (PBS plus 2% FBS). 100 μl of the cell suspension was dispensed into each well of a 96-well plate and incubated at room temperature for 10-20 min. […] While incubating, purified antibodies were diluted to the desired dilution with blocking buffer. After a 10-20 minutes incubation, cells were centrifuged for 5 min at 2000 rmp in a refrigerated centrifuge. Blocking buffer was aspirated, and cells were resuspended in 100 μl/well diluted antibodies and incubated for 1 hour at 4° C. The cells were then washed 3 times with PBS plus 2% FBS. After the final wash, the cells were resuspended in 100 μl 1:500 diluted secondary antibody (Invitrogen, Cat #: A10631) and incubated for 1 hour at 4° C. in the dark. The cells were then washed 3 times with 200 μl PBS by centrifuging at 2000 rpm for 5 min. After the last wash, the cells were resuspended in 300 μl cold PBS and analyzed on a FACSVerse™ (BD Biosciences) flow cytometer.

[5] = molecular target: T1, Rhesus-ICAM1; assay: ELISA: plate coated with 1 ug/ml recombinant rhesus ICAM1 ECD, serially diluted antibody, OD450
Procedure: as §2

[6] = molecular target: T3, recombinant human ICAM1; assay: SPR (Biacore 8K), antibody captured, antigen injected
Procedure: as §1

[7] = molecular target: T1, Rhesus-ICAM1; assay: as above
Procedure: as §1

T3 sequence (P05362 28-480 limits assumed): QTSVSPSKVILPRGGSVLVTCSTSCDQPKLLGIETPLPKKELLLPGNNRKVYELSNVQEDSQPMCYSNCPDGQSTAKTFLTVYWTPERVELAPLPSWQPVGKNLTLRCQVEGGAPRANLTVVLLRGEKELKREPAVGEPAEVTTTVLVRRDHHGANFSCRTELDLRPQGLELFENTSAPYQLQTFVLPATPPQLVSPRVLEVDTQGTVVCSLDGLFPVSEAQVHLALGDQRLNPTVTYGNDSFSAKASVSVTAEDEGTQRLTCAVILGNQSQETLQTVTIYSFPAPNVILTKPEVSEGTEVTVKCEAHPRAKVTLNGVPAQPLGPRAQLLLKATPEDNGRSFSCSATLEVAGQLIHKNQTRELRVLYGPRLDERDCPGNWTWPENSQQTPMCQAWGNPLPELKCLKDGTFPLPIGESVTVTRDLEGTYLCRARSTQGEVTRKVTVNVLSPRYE
T4 sequence (P05362 28-532): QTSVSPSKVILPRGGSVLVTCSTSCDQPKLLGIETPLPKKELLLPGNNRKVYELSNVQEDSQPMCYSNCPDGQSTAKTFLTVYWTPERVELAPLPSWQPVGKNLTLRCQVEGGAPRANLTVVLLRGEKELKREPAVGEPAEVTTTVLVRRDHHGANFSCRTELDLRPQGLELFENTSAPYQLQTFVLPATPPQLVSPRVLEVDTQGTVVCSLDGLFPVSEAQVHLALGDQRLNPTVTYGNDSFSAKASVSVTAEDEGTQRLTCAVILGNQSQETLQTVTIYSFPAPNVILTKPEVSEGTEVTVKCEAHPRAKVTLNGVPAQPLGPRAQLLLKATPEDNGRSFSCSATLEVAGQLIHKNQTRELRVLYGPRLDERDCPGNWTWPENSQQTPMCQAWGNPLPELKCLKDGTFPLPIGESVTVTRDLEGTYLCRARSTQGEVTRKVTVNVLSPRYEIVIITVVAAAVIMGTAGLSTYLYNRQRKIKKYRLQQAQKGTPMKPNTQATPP

Binder | Kd [1] [nM] | koff [1] [s⁻¹] | kon [1] [M⁻¹ s⁻¹] | Kd [2] [nM] | koff [2] [s⁻¹] | kon [2] [M⁻¹ s⁻¹] | EC50 (read off the curve) [3] [nM] | EC50 [4] [nM] | Max Binding MFI [4] [MFI] | EC50 (read off the curve) [5] [nM] | Kd [6] [nM] | koff [6] [s⁻¹] | kon [6] [M⁻¹ s⁻¹] | Kd [7] [nM] | koff [7] [s⁻¹] | kon [7] [M⁻¹ s⁻¹]
4618_1 (antibody, human IgG1, kappa, V domains shown, Human IgG1 with the common anti-HER2 light chain; Library-derived anti-CD38) VH: EVQLLESGGGLVQPGGSLRLSCAASGFPFDVYAMSWVRQAPGKGLEWVSAISGSGGSTFYADSVKGRFTISRDNSKNTLYLQMNSLRAEDTAVYYCAKRGTYAYSFPTGFDYWGQGTLVTVSS VL: not shown | 1.68 | 0.00288 | 1.71e+06 | 3.81 | 0.00188 | 494000 |  |  |  |  |  |  |  |  |  | 
32018_7 (antibody, human IgG1, kappa, V domains shown, Human IgG1 with the common anti-HER2 light chain; Library-derived anti-CD38) VH: EVQLLESGGGLVQPGGSLRLSCAASGFPFGTYAMSWVRQAPGKGLEWVSAISGSGGSTFYADSVKGRFTISRDNSKNTLYLQMNSLRAEDTAVYYCAKRGTYGYSFPTGFDYWGQGTLVTVSS VL: not shown | 12.4 | 0.0155 | 1.25e+06 | 38.2 | 0.0116 | 304000 |  |  |  |  |  |  |  |  |  | 
4618_12 (antibody, human IgG1, kappa, V domains shown, Human IgG1 with the common anti-HER2 light chain) VH: EVQLLESGGGLVQPGGSLRLSCAASGFPFGVYAMSWVRQAPGKGLEWVSAISGSGGSTFYADSVKGRFTISRDNSKNTLYLQMNSLRAEDTAVYYCAKRGTYAYSYPTGFDYWGQGTLVTVSS VL: not shown | 1.65 | 0.00253 | 1.53e+06 | 1.79 | 0.00077 | 430000 |  |  |  |  |  |  |  |  |  | 
4618_5F_12 (antibody, human IgG1, kappa, V domains shown, Human IgG1 with the common anti-HER2 light chain) VH: EVQLLESGGGLVQPGGSLRLSCAASGFPFDAYAMSWVRQAPGKGLEWVSAISGSGGSTFYADSVKGRFTISRDNSKNTLYLQMNSLRAEDTAVYYCAKRGTYAYSYPTGFDYWGQGTLVTVSS VL: not shown | 0.83 | 0.00144 | 1.74e+06 | 0.66 | 0.000295 | 449000 |  |  |  |  |  |  |  |  |  | 
4618_5_12 (antibody, human IgG1, kappa, V domains shown, Human IgG1 with the common anti-HER2 light chain; Library-derived anti-CD38) VH: EVQLLESGGGLVQPGGSLRLSCAASGFPFDAYAMSWVRQAPGKGLEWVSAISGSGGSTYYADSVKGRFTISRDNSKNTLYLQMNSLRAEDTAVYYCAKRGTYAYSYPTGFDYWGQGTLVTVSS VL: not shown | 1.33 | 0.00168 | 1.26e+06 | 1.68 | 0.000596 | 354000 |  |  |  |  |  |  |  |  |  | 
4618_1_12 (antibody, human IgG1, kappa, V domains shown, Human IgG1 with the common anti-HER2 light chain; Library-derived anti-CD38) VH: EVQLLESGGGLVQPGGSLRLSCAASGFPFDVYAMSWVRQAPGKGLEWVSAISGSGGSTFYADSVKGRFTISRDNSKNTLYLQMNSLRAEDTAVYYCAKRGTYAYSYPTGFDYWGQGTLVTVSS VL: not shown | 0.62 | 0.00157 | 2.53e+06 | 0.42 | 0.000273 | 657000 |  |  |  |  |  |  |  |  |  | 
8H1 (antibody, human IgG1, kappa, V domains shown, Rabbit-human chimeric anti-ICAM1: rabbit VH and VL on human IgG1 and kappa constant regions) VH: QSVEESGGRLVTPGTPLTLTCTASGFSLSNYYMSWVRQAPGKGLEWIGIISDSGSTYYASWAKGRFTISKTSTTVDLKITSPTTEDTATYFCARDWSYDSSSGYYYYDMDLWGPGTLVTVSA VL: GYDMTQTPASVEVAVGGTVTIKCQASQSINSWLAWFQHKPGQPPKRLIYKASTLASGVSSRFKGSGSGTQFTLTISGVESADAATYYCQQGYSRSDGEHVFGGGTEVVVKR |  |  |  |  |  |  | ~0.04 | 1.82 | 5270 | ~0.04 | 3.1 | 0.000345 | 111000 | 2.92 | 0.00125 | 427000
11G7 (antibody, human IgG1, kappa, V domains shown, Rabbit-human chimeric anti-ICAM1: rabbit VH and VL on human IgG1 and kappa constant regions) VH: QSVEESGGRLVTPGTPLTLTCTVSGFSLSDYYMSWVRQAPGKGLEWIGIISDSGSTYYASWAKGRFTISKTSSTTVDLKITSPTTEDTATYFCARDWSYDSSSGYYYYDMDLWGPGTLVTVSA VL: AYDMTQTPASVEVAVGGTVTIKCQASQSINSWLSWFHQKPGQPPKRLIYKASTLASGVSSRFKGSGSGTQFTLTISGVESADAATYYCQQGYSRSDGEHVFGGGTEVVVKR |  |  |  |  |  |  | ~0.04 | 1.04 | 4820 | ~0.04 | 2.65 | 0.000271 | 103000 | 4.28 | 0.000624 | 146000
15D10 (antibody, human IgG1, kappa, V domains shown, Rabbit-human chimeric anti-ICAM1: rabbit VH and VL on human IgG1 and kappa constant regions) VH: QSVEESGGRLVTPGTPLTLTCTASGFSLNNYYMSWVRQAPGKGLEWIGIISDSDNTYYASWAKGRFTISKTSTTVDLKITSPTTEDTATYFCARDWSLDSSSGYYYYDMDLWGPGTLVTVSA VL: AYDMTQTPASMEVAVGGTVTIKCQASQNIHSWLAWFQQKPGQPPKRLIYKASTLASGVPSRFKGSGSGTQFTLTISGVQSDDAATYYCQQGYSRSDGEHVFGGGTEVVVKR |  |  |  |  |  |  | ~0.04 | 0.879 | 5000 | ~0.04 | 2.12 | 0.000181 | 85500 | 1.79 | 0.000421 | 236000

Results, then the binder that gave them:

Kd [1] [nM] | koff [1] [s⁻¹] | kon [1] [M⁻¹ s⁻¹] | Kd [2] [nM] | koff [2] [s⁻¹] | kon [2] [M⁻¹ s⁻¹] | EC50 (read off the curve) [3] [nM] | EC50 [4] [nM] | Max Binding MFI [4] [MFI] | EC50 (read off the curve) [5] [nM] | Kd [6] [nM] | koff [6] [s⁻¹] | kon [6] [M⁻¹ s⁻¹] | Kd [7] [nM] | koff [7] [s⁻¹] | kon [7] [M⁻¹ s⁻¹] | Binder
1.48 | 0.00321 | 2.17e+06 | 2.23 | 0.00121 | 542000 |  |  |  |  |  |  |  |  |  |  | 4618_5 (antibody, human IgG1, kappa, V domains shown, Human IgG1 with the common anti-HER2 light chain; Library-derived anti-CD38) VH: EVQLLESGGGLVQPGGSLRLSCAASGFPFDAYAMSWVRQAPGKGLEWVSAISGSGGSTYYADSVKGRFTISRDNSKNTLYLQMNSLRAEDTAVYYCAKRGTYAYSFPTGFDYWGQGTLVTVSS VL: not shown
7.43 | 0.0156 | 2.1e+06 | 13.1 | 0.00887 | 675000 |  |  |  |  |  |  |  |  |  |  | 32218_2 (antibody, human IgG1, kappa, V domains shown, Human IgG1 with the common anti-HER2 light chain; Library-derived anti-CD38) VH: EVQLLESGGGLVQPGGSLRLSCAASGFPFDTYAMSWVRQAPGKGLEWVSAISGSGGSTYYADSVKGRFTISRDNSKNTLYLQMNSLRAEDTAVYYCAKRGTYAYSFPTGFDYWGQGTLVTVSS VL: not shown
4.1 | 0.00496 | 1.21e+06 | 3.61 | 0.00178 | 493000 |  |  |  |  |  |  |  |  |  |  | 32218_1 (antibody, human IgG1, kappa, V domains shown, Human IgG1 with the common anti-HER2 light chain; Library-derived anti-CD38) VH: EVQLLESGGGLVQPGGSLRLSCAASGFPFGVYAMSWVRQAPGKGLEWVSAISGSGGSTFYADSVKGRFTISRDNSKNTLYLQMNSLRAEDTAVYYCAKRGTYAYSFPTGFDYWGQGTLVTVSS VL: not shown
 |  |  |  |  |  | ~0.04 | 1.31 | 4720 | ~0.04 | 3.39 | 0.000256 | 75600 | 4.11 | 0.000568 | 138000 | 4H5 (antibody, human IgG1, kappa, V domains shown, Rabbit-human chimeric anti-ICAM1: rabbit VH and VL on human IgG1 and kappa constant regions) VH: QSVEESGGRLVTPGTPLTLTCTASGFSLSNYYMSWVRQAPGKGLEWIGIISDSGTTYYASWAKGRFTISKTSTTVDLKITSPTTEDTATYFCARDWSYDSSSGYYYYDMDLWGPGTLVTVSA VL: GYDMTQTPASVEVAVGGTVTIKCQASQSINSWLVWFQHKPGQPPKRLIYKASTLASGVSSRFKGSGSGTHFTLTISGVESADAATYYCQQGYSRSDGEHVFGGGTEVVVKR
 |  |  |  |  |  | ~0.04 | 0.591 | 4690 | ~0.04 | 1.62 | 0.000237 | 146000 | 2.25 | 0.000434 | 193000 | 14H1 (antibody, human IgG1, kappa, V domains shown, Rabbit-human chimeric anti-ICAM1: rabbit VH and VL on human IgG1 and kappa constant regions) VH: QSVEESGGRLVTPGTPLTLTCTVSGFSLSNYYMSWVRQAPGKGLEWIGIISDSGSTYYASWAKGRFTISKTSTTVDLSITSPTTEDTATYFCARDWSYDSTSGYYYYDMDLWGPGTLVTVSA VL: AYDMTQTPASVEVAVGGTVTIKCQASQSINSWLSWFHQKPGQPPKRLIYKASTLASGVSSRFKGSGSGTQFTLTISGVESADAATYYCQQGYSRSDGEHVFGGGTEVVVKR
 |  |  |  |  |  | ~0.04 | 1.31 | 4060 | ~0.04 | 0.29 | 0.000131 | 456000 | 0.25 | 0.000224 | 914000 | 11F2 (antibody, human IgG1, kappa, V domains shown, Rabbit-human chimeric anti-ICAM1: rabbit VH and VL on human IgG1 and kappa constant regions) VH: QSVEESGGGLVKPGGTLTLTCTVSGFSLSSHAMGWVRQAPGKGLEYIGIIGSSDRTYYASWAKGRFTISKTSTTVDLKITSPTTEDTATYFCVRDPYDSYDDGYRLWGPGTLVTVSS VL: AYDMTQTPASVEVAVGGTVTIKCQASQSIYRYLSWYQKKPGQRPKFLIYDASKLASGVPSRFEGSGSGTEFTLTISGAQSDDAATYYCQQAYSSGSIDNAFGGGTEVVVKR
